Reference: patent US20030158387A1

Key:
[1] = molecular target: chemokine receptor 5 (CCR5) (human) (UniProt P51681); assay: competition radioligand binding, membranes of CHO-K1 cells expressing CCR5, tracer [125I]-MIP-1 beta; mean ± SEM
[2] = molecular target: chemokine receptor 1 (CCR1) (UniProt P56482); assay: competition radioligand binding, membranes of CHO-K1 cells expressing CCR1, tracer [125I]-MIP-1 alpha; mean ± SEM
[3] = molecular target: chemokine receptor 5 (CCR5) (human) (UniProt P51681)
[4] = molecular target: chemokine receptor 5 (CCR5) (human) (UniProt P51681); assay: competition radioligand binding, membranes of CHO-K1 cells expressing CCR5, tracer [125I]-MIP-1 beta
[5] = molecular target: chemokine receptor 1 (CCR1) (UniProt P56482); assay: competition radioligand binding, membranes of CHO-K1 cells expressing CCR1, tracer [125I]-MIP-1 alpha
[6] = molecular target: chemokine receptor 1 (CCR1) (UniProt P56482); assay: cell-based or functional assay
[7] = molecular target: chemokine receptor 1 (CCR1) (UniProt P56482)
[8] = molecular target: chemokine receptor 1 (CCR1) (UniProt P56482); remark: listed apart in the source
[9] = molecular target: chemokine receptor 5 (CCR5) (human) (UniProt P51681); remark: listed apart in the source

Chain of RANTES (P13501 24-91): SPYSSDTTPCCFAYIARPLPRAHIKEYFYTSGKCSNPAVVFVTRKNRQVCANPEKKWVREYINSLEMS
Chain of chemokine receptor 5 (CCR5) (human) (P51681 whole entry): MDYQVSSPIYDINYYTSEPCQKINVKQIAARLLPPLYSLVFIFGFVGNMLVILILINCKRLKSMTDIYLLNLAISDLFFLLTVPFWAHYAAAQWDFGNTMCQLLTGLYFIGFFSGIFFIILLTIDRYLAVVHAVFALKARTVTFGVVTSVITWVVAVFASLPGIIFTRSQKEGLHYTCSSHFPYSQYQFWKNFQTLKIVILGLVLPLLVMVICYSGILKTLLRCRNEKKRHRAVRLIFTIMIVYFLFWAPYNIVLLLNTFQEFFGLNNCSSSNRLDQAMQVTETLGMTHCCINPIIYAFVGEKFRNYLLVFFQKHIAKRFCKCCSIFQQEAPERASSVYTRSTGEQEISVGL

Row | IC50 [1] [nM] | IC50 [2] [nM] | EC50 (aequorin luminescence, CHO-K1 cells expressing CCR5) [3] [nM] | IC50 (read off the curve) [4] [nM] | IC50 (read off the curve) [5] [nM] | EC50 of receptor activation (aequorin assay) [6] [nM] | EC50 (aequorin luminescence, CHO-K1 cells expressing CCR1) [7] [nM] | EC50 (read off the curve) [8] [nM] | EC50 (read off the curve) [9] [nM] | Substance
1 | 0.776 | 5.42 | 1.45 | 0.1 | 4 |  |  |  |  | NNY-RANTES (ligand)
2 |  |  |  |  | 0.3 | 6.3 | 8.03 | 10 |  | RANTES (from UniProt P13501 24-91) (ligand)
3 | 0.0968 | 2.67 | 1.94 | 0.06 | 4 |  |  |  | 3 | AOP-RANTES (ligand)
